The values that follow come from patent US20120213763A1 (COUNCIL OF SCIENTIFIC AND INDUSTRIAL RESEARCH, published 2012).

Where “and” joins values, the source holds several entries; their conditions need not be identical. Equal entries are not always repeated.

For series [1], the target named is T1, PEGylated SK D95C (SEQ ID NO 30).
T1 chain: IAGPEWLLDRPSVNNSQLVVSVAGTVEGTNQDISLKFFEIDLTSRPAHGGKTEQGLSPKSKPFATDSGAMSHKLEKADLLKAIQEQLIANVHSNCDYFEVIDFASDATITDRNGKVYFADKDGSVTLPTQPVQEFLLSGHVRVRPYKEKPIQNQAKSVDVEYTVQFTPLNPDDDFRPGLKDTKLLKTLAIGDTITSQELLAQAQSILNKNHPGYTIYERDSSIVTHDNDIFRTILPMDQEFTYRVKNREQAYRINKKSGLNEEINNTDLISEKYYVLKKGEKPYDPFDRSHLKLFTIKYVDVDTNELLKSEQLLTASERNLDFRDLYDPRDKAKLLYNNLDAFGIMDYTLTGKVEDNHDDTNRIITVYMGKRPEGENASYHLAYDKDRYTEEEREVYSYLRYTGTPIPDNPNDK

For series [2], the target named is PEG Variants of SEQ ID NO 24 (PEGylated Cysteine variants of fibrin domain fusion form of SK).
In series [3] the target is T2, PEGylated SK D102C (SEQ ID NO 32).
T2 chain: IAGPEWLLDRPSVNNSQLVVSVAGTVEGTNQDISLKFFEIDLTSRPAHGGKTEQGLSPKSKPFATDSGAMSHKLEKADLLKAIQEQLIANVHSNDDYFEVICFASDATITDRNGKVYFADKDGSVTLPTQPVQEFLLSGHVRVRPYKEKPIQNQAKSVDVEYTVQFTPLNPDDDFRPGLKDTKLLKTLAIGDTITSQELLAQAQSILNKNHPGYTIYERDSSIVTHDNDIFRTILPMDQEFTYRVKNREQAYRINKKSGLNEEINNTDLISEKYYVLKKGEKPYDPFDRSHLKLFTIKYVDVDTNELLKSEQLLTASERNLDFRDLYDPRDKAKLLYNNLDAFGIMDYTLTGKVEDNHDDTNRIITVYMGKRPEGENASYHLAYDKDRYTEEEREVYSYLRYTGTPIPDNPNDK

Series [4] deals with T3, native streptokinase nSK (1-414) ATCC 12449 (SEQ ID NO 1).
T3 chain: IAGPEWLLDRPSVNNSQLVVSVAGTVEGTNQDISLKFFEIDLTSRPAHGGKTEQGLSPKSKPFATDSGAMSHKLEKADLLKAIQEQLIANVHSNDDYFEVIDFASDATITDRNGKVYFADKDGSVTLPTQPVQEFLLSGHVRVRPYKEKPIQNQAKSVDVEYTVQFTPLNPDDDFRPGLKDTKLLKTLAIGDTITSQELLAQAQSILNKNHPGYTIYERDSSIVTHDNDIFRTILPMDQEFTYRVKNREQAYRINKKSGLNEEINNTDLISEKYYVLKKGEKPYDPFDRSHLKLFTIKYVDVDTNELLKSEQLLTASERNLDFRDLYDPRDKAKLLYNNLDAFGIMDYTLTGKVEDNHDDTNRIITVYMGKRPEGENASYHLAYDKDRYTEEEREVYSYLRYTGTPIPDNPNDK

Series [5] concerns the target T4, PEGylated SK D96C (SEQ ID NO 31).
T4 chain: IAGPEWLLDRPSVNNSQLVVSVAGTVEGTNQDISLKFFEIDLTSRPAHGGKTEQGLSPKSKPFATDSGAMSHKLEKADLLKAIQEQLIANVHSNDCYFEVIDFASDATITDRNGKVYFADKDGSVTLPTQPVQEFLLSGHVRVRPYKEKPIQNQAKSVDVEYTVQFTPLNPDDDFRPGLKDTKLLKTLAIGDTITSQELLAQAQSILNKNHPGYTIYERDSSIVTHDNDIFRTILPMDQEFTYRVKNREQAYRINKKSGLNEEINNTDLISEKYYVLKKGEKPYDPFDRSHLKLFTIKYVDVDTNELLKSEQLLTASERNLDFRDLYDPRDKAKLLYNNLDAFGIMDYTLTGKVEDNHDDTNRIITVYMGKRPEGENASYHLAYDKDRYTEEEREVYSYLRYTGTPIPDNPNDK

The target of series [6] is T5, PEGylated SK Ser 258 Cys (SEQ ID NO 49).
T5 chain: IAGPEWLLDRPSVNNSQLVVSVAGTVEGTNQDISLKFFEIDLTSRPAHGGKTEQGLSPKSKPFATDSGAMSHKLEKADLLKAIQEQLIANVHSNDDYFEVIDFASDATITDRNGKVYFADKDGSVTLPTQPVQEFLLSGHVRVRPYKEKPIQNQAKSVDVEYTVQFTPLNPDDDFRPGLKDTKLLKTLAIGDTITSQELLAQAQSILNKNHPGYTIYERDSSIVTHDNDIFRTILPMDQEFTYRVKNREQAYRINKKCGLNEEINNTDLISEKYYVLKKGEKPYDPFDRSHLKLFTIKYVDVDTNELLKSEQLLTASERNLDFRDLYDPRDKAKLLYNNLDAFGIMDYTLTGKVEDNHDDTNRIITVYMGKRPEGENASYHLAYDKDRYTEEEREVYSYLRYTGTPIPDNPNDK

Series [7] deals with T6, bi-pegylated NC 1-383 (SEQ ID NO 493), Cys at N - 1 and at C + 1 position in SK (1-383, G3).
T6 chain: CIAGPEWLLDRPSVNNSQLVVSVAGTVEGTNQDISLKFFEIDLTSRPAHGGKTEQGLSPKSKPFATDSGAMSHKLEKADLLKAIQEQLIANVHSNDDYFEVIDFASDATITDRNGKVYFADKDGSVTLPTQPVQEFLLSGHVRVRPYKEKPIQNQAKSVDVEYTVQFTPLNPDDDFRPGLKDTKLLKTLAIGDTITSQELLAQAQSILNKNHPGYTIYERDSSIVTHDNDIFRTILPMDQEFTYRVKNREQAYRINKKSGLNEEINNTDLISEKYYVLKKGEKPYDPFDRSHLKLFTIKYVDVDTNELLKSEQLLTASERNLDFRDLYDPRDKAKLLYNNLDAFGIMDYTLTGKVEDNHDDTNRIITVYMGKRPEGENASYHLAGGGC

B1: human plasminogen (HPG) (protein)
chain: KVYLSECKTGNGKNYRGTMSKTKNGITCQKWSSTSPHRPRFSPATHPSEGLEENYCRNPDNDPQGPWCYTTDPEKRYDYCDILECEEECMHCSGENYDGKISKTMSGLECQAWDSQSPHAHGYIPSKFPNKNLKKNYCRNPDRELRPWCFTTDPNKRWELCDIPRCTTPPPSSGPTYQCLKGTGENYRGNVAVTVSGHTCQHWSAQTPHTHNRTPENFPCKNLDENYCRNPDGKRAPWCHTTNSQVRWEYCKIPSCDSSPVSTEQLAPTAPPELTPVVQDCYHGDGQSYRGTSSTTTTGKKCQSWSSMTPHRHQKTPENYPNAGLTMNYCRNPDADKGPWCFTTDPSVRWEYCNLKKCSGTEASVVAPPPVVLLPDVETPSEEDCMFGNGKGYRGKRATTVTGTPCQDWAAQEPHRHSIFTPETNPRAGLEKNYCRNPDGDVGGPWCYTTNPRKLYDYCDVPQCAAPSFDCGKPQVEPKKCPGRVVGGCVAHPHSWPWQVSLRTRFGMHFCGGTLISPEWVLTAAHCLEKSPRPSSYKVILGAHQEVNLEPHVQEIEVSRLFLEPTRKDIALLKLSSPAVITDKVIPACLPSPNYVVADRTECFITGWGETQGTFGAGLLKEAQLPVIENKVCNRYEFLNGRVQSTELCAGHLAGGTDSCQGDSGGPLVCFEKDKYILQGVTSWGLGCARPNKPGVYVRVSRFVTWIEGVMRNN
With B1, the Km is 0.5 µM in series [1]; 0.48 µM in series [2]; 0.5 µM in series [3]; 0.4 µM and 0.45 µM in series [4]; 0.5 µM in series [5]; 0.5 µM in series [6]. The Km in series [7] is 0.48 µM.

What is called Km is the concentration of substrate that gives half-maximal velocity.
